Source: patent publication US8951961B2, “Structural and mechanistic basis for novel compound biosynthesis using 4-electron hexose oxidase” (Academia Sinica, priority 2009, dated 2015)

B1: I401W (protein)
chain: MTGGTGADAASAGASSTRPELRGERCLPPAGPVKVTPDDPRYLNLKLRGANSRFNGEPDYIHLVGSTQQVADAVEETVRTGKRVAVRSGGHCFEDFVDNPDVKVIIDMSLLTEIAYDPSMNAFLIEPGNTLSEVYEKLYLGWNVTIPGGVCGGVGVGGHICGGGYGPLSRQFGSVVDYLYAVEVVVVNKQGKARVIVATRERDDPHHDLWWAHTGGGGGNFGVVTKYWMRVPEDVGRNPERLLPKPPATLLTSTVTFDWAGMTEAAFSRLLRNHGEWYERNSGPDSPYTGLWSQLMIGNEVPGMGESGFMMPIQVDATRPDARRLLDAHIEAVIDGVPPAEVPEPIEQRWLASTPGRGGRGPASKTKAGYLRKRLTDRQIQAVYENMTHMDGIDYGAVWLWGYGGKVNTVDPAATALPQRDAILKVNYITGWANPGNEAKHLTWVRKLYADVYAETGGVPVPNDVSDGAYINYPDSDLADPGLNTSGVPWHDLYYKGNHPRLRKVKAAYDPRNHFHHALSIRP
B2: R360E (protein)
chain: MTGGTGADAASAGASSTRPELRGERCLPPAGPVKVTPDDPRYLNLKLRGANSRFNGEPDYIHLVGSTQQVADAVEETVRTGKRVAVRSGGHCFEDFVDNPDVKVIIDMSLLTEIAYDPSMNAFLIEPGNTLSEVYEKLYLGWNVTIPGGVCGGVGVGGHICGGGYGPLSRQFGSVVDYLYAVEVVVVNKQGKARVIVATRERDDPHHDLWWAHTGGGGGNFGVVTKYWMRVPEDVGRNPERLLPKPPATLLTSTVTFDWAGMTEAAFSRLLRNHGEWYERNSGPDSPYTGLWSQLMIGNEVPGMGESGFMMPIQVDATRPDARRLLDAHIEAVIDGVPPAEVPEPIEQRWLASTPGRGGEGPASKTKAGYLRKRLTDRQIQAVYENMTHMDGIDYGAVWLIGYGGKVNTVDPAATALPQRDAILKVNYITGWANPGNEAKHLTWVRKLYADVYAETGGVPVPNDVSDGAYINYPDSDLADPGLNTSGVPWHDLYYKGNHPRLRKVKAAYDPRNHFHHALSIRP
B3: N44A (protein)
chain: MTGGTGADAASAGASSTRPELRGERCLPPAGPVKVTPDDPRYLALKLRGANSRFNGEPDYIHLVGSTQQVADAVEETVRTGKRVAVRSGGHCFEDFVDNPDVKVIIDMSLLTEIAYDPSMNAFLIEPGNTLSEVYEKLYLGWNVTIPGGVCGGVGVGGHICGGGYGPLSRQFGSVVDYLYAVEVVVVNKQGKARVIVATRERDDPHHDLWWAHTGGGGGNFGVVTKYWMRVPEDVGRNPERLLPKPPATLLTSTVTFDWAGMTEAAFSRLLRNHGEWYERNSGPDSPYTGLWSQLMIGNEVPGMGESGFMMPIQVDATRPDARRLLDAHIEAVIDGVPPAEVPEPIEQRWLASTPGRGGRGPASKTKAGYLRKRLTDRQIQAVYENMTHMDGIDYGAVWLIGYGGKVNTVDPAATALPQRDAILKVNYITGWANPGNEAKHLTWVRKLYADVYAETGGVPVPNDVSDGAYINYPDSDLADPGLNTSGVPWHDLYYKGNHPRLRKVKAAYDPRNHFHHALSIRP
B4: R41A (protein)
chain: MTGGTGADAASAGASSTRPELRGERCLPPAGPVKVTPDDPAYLNLKLRGANSRFNGEPDYIHLVGSTQQVADAVEETVRTGKRVAVRSGGHCFEDFVDNPDVKVIIDMSLLTEIAYDPSMNAFLIEPGNTLSEVYEKLYLGWNVTIPGGVCGGVGVGGHICGGGYGPLSRQFGSVVDYLYAVEVVVVNKQGKARVIVATRERDDPHHDLWWAHTGGGGGNFGVVTKYWMRVPEDVGRNPERLLPKPPATLLTSTVTFDWAGMTEAAFSRLLRNHGEWYERNSGPDSPYTGLWSQLMIGNEVPGMGESGFMMPIQVDATRPDARRLLDAHIEAVIDGVPPAEVPEPIEQRWLASTPGRGGRGPASKTKAGYLRKRLTDRQIQAVYENMTHMDGIDYGAVWLIGYGGKVNTVDPAATALPQRDAILKVNYITGWANPGNEAKHLTWVRKLYADVYAETGGVPVPNDVSDGAYINYPDSDLADPGLNTSGVPWHDLYYKGNHPRLRKVKAAYDPRNHFHHALSIRP

The molecules below were run on Dbv29 (assay: Relative enzymatic activities of Dbv29 mutants). Details: relative to WT.
Format: biochemical, Nonomuraea sp. ATCC39727
B1 gave a Relative activity of 0.02.
B2 gave a Relative activity of 0.76.
B3 gave a Relative activity of 0.87.
For B4, the Relative activity was 0.72.
